In patent EP4682162A1 (Neowise Biotechnology Co., Ltd., dated 2026):

Key:
[1] = target: T1, labeled peptide-MHC (HLA-A*02:01) tetramer (…-HLA-A*02:01 tetramer) (human); experiment: pMHC tetramer staining of edited CD8+ T cells, flow cytometry
T1 construct: Labeled tetramer used for flow cytometry staining; also called pMHC; pMHC tetramer

[2] = target: T1, labeled peptide-MHC (HLA-A*02:01) …; experiment: tetramer staining of sorted T cell clones, flow cytometry

binding result [1]	binding result [2]	Binder
binds		nwTCR-2159 (TCR, V domains shown, TCR on T cells) V domain 1: QQPVQSPQAVILREGEDAVINCSSSKALYSVHWYRQKHGEAPVFLMILLKGGEQKGHDKISASFNEKKQQSSLYLTASQLSYSGTYFCGTESGRGSTLGRLYFGRGTQLTVWP V domain 2: DSGVTQTPKHLITATGQRVTLRCSPRSGDLSVYWYQQSLDQGLQFLIQYYNGEERAKGNILERFSAQQFPDLHSELNLSSLELGDSALYFCASSPWTSGSYEQYFGPGTRLTVTE
	binds	nwTCR-3271 (TCR, V domains shown, TCR on T cells) V domain 1: DQQVKQNSPSLSVQEGRISILNCDYTNSMFDYFLWYKKYPAEGPTFLISISSIKDKNEDGRFTVFLNKSAKHLSLHIVPSQPGDSAVYFCAAKPDKLIFGTGTRLQVFP V domain 2: SAVISQKPSRDICQRGTSLTIQCQVDSQVTMMFWYRQQPGQSLTLIATANQGSEATYESGFVIDKFPISRPNLTFSTLTVSNMSPEDSSIYLCSVWGAGLAIYNEQFFGPGTRLTVLE
binds		nwTCR-2157 (TCR, V domains shown, TCR on T cells) V domain 1: QKEVEQNSGPLSVPEGAIASLNCTYSDRGSQSFFWYRQYSGKSPELIMFIYSNGDKEDGRFTAQLNKASQYVSLLIRDSQPSDSATYLCAVPGGTSYGKLTFGQGTILTVHP V domain 2: DTAVSQTPKYLVTQMGNDKSIKCEQNLGHDTMYWYKQDSKKFLKIMFSYNNKELIINETVPNRFSPKSPDKAHLNLHINSLELGDSAVYFCASSQGISGNTIYFGEGSWLTVVE
	binds	nwTCR-1954 (TCR, V domains shown, TCR on T cells) V domain 1: QKEVEQNSGPLSVPEGAIASLNCTYSDRGSQSFFWYRQYSGKSPELIMSIYSNGDKEDGRFTAQLNKASQYVSLLIRDSQPSDSATYLCAVLRSNDYKLSFGAGTTVTVRA V domain 2: EAQVTQNPRYLITVTGKKLTVTCSQNMNHEYMSWYRQDPGLGLRQIYYSMNVEVTDKGDVPEGYKVSRKEKRNFPLILESPSPNQTSLYFCASSPGTSGNEQFFGPGTRLTVLE
	binds	nwTCR-3173 (TCR, V domains shown, TCR on T cells) V domain 1: SQQGEEDPQALSIQEGENATMNCSYKTSINNLQWYRQNSGRGLVHLILIRSNEREKHSGRLRVTLDTSKKSSSLLITASRAADTASYFCATYANDYKLSFGAGTTVTVRA V domain 2: EAQVTQNPRYLITVTGKKLTVTCSQNMNHEYMSWYRQDPGLGLRQIYYSMNVEVTDKGDVPEGYKVSRKEKRNFPLILESPSPNQTSLYFCASSAGTGGFVGYTFGSGTRLTVVE
binds		nwTCR-2169 (TCR, V domains shown, TCR on T cells) V domain 1: SQQGEEDPQALSIQEGENATMNCSYKTSINNLQWYRQNSGRGLVHLILIRSNEREKHSGRLRVTLDTSKKSSSLLITASRAADTASYFCATLTLNDYKLSFGAGTTVTVRA V domain 2: EAQVTQNPRYLITVTGKKLTVTCSQNMNHEYMSWYRQDPGLGLRQIYYSMNVEVTDKGDVPEGYKVSRKEKRNFPLILESPSPNQTSLYFCATQWASGSTDTQYFGPGTRLTVLE
	binds	nwTCR-3272 (TCR, V domains shown, TCR on T cells) V domain 1: QKEVEQNSGPLSVPEGAIASLNCTYSDRGSQSFFWYRQYSGKSPELIMSIYSNGDKEDGRFTAQLNKASQYVSLLIRDSQPSDSATYLCAVPSGNMLTFGGGTRLMVKP V domain 2: DVKVTQSSRYLVKRTGEKVFLECVQDMDHENMFWYRQDPGLGLRLIYFSYDVKMKEKGDIPEGYSVSREKKERFSLILESASTNQTSMYLCASSSATSGSGEQYFGPGTRLTVTE
	binds	nwTCR-3274 (TCR, V domains shown, TCR on T cells) V domain 1: QKEVEQNSGPLSVPEGAIASLNCTYSDRGSQSFFWYRQYSGKSPELIMSIYSNGDKEDGRFTAQLNKASQYVSLLIRDSQPSDSATYLCAVVSGGYNKLIFGAGTRLAVHP V domain 2: EPEVTQTPSHQVTQMGQEVILRCVPISNHLYFYWYRQILGQKVEFLVSFYNNEISEKSEIFDDQFSVERPDGSNFTLKIRSTKLEDSAMYFCASSEGWGGTEAFFGQGTRLTVVE
	binds	nwTCR-3273 (TCR, V domains shown, TCR on T cells) V domain 1: SQELEQSPQSLIVQEGKNLTINCTSSKTLYGLYWYKQKYGEGLIFLMMLQKGGEEKSHEKITAKLDEKKQQSSLHITASQPSHAGIYLCGAVPINDYKLSFGAGTTVTVRA V domain 2: EAQVTQNPRYLITVTGKKLTVTCSQNMNHEYMSWYRQDPGLGLRQIYYSMNVEVTDKGDVPEGYKVSRKEKRNFPLILESPSPNQTSLYFCASSIDSGSSYNEQFFGPGTRLTVLE
binds		nwTCR-2006 (TCR, V domains shown, TCR on T cells) V domain 1: AQSVTQLDSHVSVSEGTPVLLRCNYSSSYSPSLFWYVQHPNKGLQLLLKYTSAATLVKGINGFEAEFKKSETSFHLTKPSAHMSDAAEYFCVVSITGFQKLVFGTGTRLLVSP V domain 2: GAVVSQHPSRVICKSGTSVKIECRSLDFQATTMFWYRQFPKQSLMLMATSNEGSKATYEQGVEKDKFLINHASLTLSTLTVTSAHPEDSSFYICSATEDNEKLFFGSGTQLSVLE
